Measured values from publication PMC5681435, “Differential Regulation of G1 CDK Complexes by the Hsp90-Cdc37 Chaperone System” (Cell Reports, 2017).

B1: GSTCDK4 (enzyme, human, UniProt P11802 1-303, looked up)
chain: MATSRYEPVAEIGVGAYGTVYKARDPHSGHFVALKSVRVPNGGGGGGGLPISTVREVALLRRLEAFEHPNVVRLMDVCATSRTDREIKVTLVFEHVDQDLRTYLDKAPPPGLPAETIKDLMRQFLRGLDFLHANCIVHRDLKPENILVTSGGTVKLADFGLARIYSYQMALTPVVVTLWYRAPEVLLQSTYATPVDMWSVGCIFAEMFRRKPLFCGNSEADQLGKIFDLIGLPPEDDWPRDVSLPRGAFPPRGPRPVQSVVPEMEESGAQLLLEMLTFNPHKRISAFRALQHSYLHKDEGNPE
notes: also called GST-tagged CDK4

Key:
Conditions in all cases: both partners purified
[1] = molecular target: T1, biotinylated C-terminally Avi-tagged Cdc37 (human, UniProt Q16543 1-378, biotin (on the Avi tag)); assay: AlphaScreen or HTRF; direct binding: GST-fused CDK (10 nM) and biotinylated Avi-tagged partner titrated; terbium-conjugated anti-GST antibody and streptavidin-XL665
T1 construct: not shown: Avi tag, C-terminal, kept
T1 sequence (looked up): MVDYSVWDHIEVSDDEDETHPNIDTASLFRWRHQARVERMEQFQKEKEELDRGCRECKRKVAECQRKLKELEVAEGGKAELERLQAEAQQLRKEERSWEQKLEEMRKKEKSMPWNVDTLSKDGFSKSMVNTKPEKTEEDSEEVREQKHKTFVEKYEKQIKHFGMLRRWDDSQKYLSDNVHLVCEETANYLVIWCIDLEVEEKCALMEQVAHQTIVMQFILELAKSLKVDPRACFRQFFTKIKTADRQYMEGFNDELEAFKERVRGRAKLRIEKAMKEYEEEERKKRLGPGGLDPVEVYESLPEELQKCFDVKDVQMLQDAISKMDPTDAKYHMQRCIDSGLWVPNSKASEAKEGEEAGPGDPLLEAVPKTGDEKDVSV

GSTCDK4 [2] = molecular target: B1; assay: as above
GSTCDK6 [3] = molecular target: T2, GSTCDK6 (human, UniProt Q00534 1-326); assay: as above
T2 construct: also called GST-tagged CDK6

GSTCDK4 [4] = molecular target: B1; assay: SPR
GSTCDK6 [5] = molecular target: T2, GSTCDK6; assay: SPR
GSTCDK4 [6] = molecular target: B1; assay: SPR; remark: listed apart in the source
GSTCDK6 [7] = molecular target: T2, GSTCDK6; assay: SPR; remark: listed apart in the source

T2 sequence (Q00534 whole entry): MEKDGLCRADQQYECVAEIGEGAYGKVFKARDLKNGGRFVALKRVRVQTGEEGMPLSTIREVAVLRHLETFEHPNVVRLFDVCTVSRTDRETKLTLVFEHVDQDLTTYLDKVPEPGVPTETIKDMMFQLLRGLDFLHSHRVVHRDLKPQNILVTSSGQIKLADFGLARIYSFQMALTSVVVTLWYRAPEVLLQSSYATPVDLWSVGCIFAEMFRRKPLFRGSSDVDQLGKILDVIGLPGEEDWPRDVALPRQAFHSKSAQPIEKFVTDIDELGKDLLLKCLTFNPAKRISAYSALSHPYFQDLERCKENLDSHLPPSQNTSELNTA

With B1 the Kd [1] was 92 nM.

B2: Vcyclin (Avi-tagged, for direct HTRF) (natural protein)
chain: MADSPNRLNRAKIDSTTMKDPRVLNNLKLRELLLPKFTSLWEIQTEVTVDNRTILLTWMHLLCESFELDKSVFPLSVSILDRYLCKKQGTKKTLQKIGAACVLIGSKIRTVKPMTVSKLTYLSCDCFTNLELINQEKDILEALKWDTEAVLATDFLIPLCNALKIPEDLWPQLYEAASTTICKALIQPNIALLSPGLICAGGLLTTIETDNTNCRPWTCYLEDLSSILNFSTNTVRTVKDQVSEAFSLYDLEIL
modifications: biotin (on the Avi tag)
notes: also called viral D-type cyclin from Herpesvirus saimiri; source: purified
B2 gave a Kd (GSTCDK4 [2]) of 151 nM and a Kd (GSTCDK6 [3]) of 14.9 nM.

B3: untagged p16INK4a (natural protein, UniProt P42771 1-156, looked up)
chain: MEPAAGSSMEPSADWLATAAARGRVEEVRALLEAGALPNAPNSYGRRPIQVMMMGSARVAELLLLHGAEPNCADPATLTRPVHDAAREGFLDTLVVLHRAGARLDVRDAWGRLPVDLAEELGHRDVARYLRAAAGGTRGSNHARIDAAEGPSDIPD
notes: also called wild-type p16INK4a; authentic p16INK4a
B3 was tested, and the Kd (GSTCDK4 [4]) was 0.87 nM and the Kd (GSTCDK6 [5]) was 0.26 nM.

B4: p16D108N (natural protein, UniProt P42771 1-156, looked up)
chain: MEPAAGSSMEPSADWLATAAARGRVEEVRALLEAGALPNAPNSYGRRPIQVMMMGSARVAELLLLHGAEPNCADPATLTRPVHDAAREGFLDTLVVLHRAGARLDVRNAWGRLPVDLAEELGHRDVARYLRAAAGGTRGSNHARIDAAEGPSDIPD
notes: also called p16INK4a D108N
B4 gave a Kd (GSTCDK4 [4]) of 2.56 nM and a Kd (GSTCDK6 [5]) of 0.28 nM.

B5: p16M53I (natural protein, UniProt P42771 1-156, looked up)
chain: MEPAAGSSMEPSADWLATAAARGRVEEVRALLEAGALPNAPNSYGRRPIQVMIMGSARVAELLLLHGAEPNCADPATLTRPVHDAAREGFLDTLVVLHRAGARLDVRDAWGRLPVDLAEELGHRDVARYLRAAAGGTRGSNHARIDAAEGPSDIPD
notes: also called p16INK4a M53I
In the case of B5, the “fold reduction in the strength of the interaction against wild-type p16INK4a” value (GSTCDK4 [6]) is reported as over 1e+06 fold, the “fold higher rate of dissociation against wild-type p16INK4a” value (GSTCDK6 [7]) is reported as about 10 fold and the Kd (GSTCDK6 [5]) is reported as 0.73 nM.

B6: p16D84N (natural protein, UniProt P42771 1-156, looked up)
chain: MEPAAGSSMEPSADWLATAAARGRVEEVRALLEAGALPNAPNSYGRRPIQVMMMGSARVAELLLLHGAEPNCADPATLTRPVHNAAREGFLDTLVVLHRAGARLDVRDAWGRLPVDLAEELGHRDVARYLRAAAGGTRGSNHARIDAAEGPSDIPD
notes: also called p16INK4a D84N
In the case of B6, the binding result (GSTCDK4 [6]) is reported as “binds” and the Kd (GSTCDK6 [5]) is reported as 59.7 nM.

B7: p16M53E (natural protein, UniProt P42771 1-156, looked up)
chain: MEPAAGSSMEPSADWLATAAARGRVEEVRALLEAGALPNAPNSYGRRPIQVMEMGSARVAELLLLHGAEPNCADPATLTRPVHDAAREGFLDTLVVLHRAGARLDVRDAWGRLPVDLAEELGHRDVARYLRAAAGGTRGSNHARIDAAEGPSDIPD
notes: also called p16INK4a M53E
For B7, the binding result (GSTCDK4 [6]) was “binds” and the Kd (GSTCDK6 [5]) was 1.56 nM.

B8: Avi-tagged Kcyclin (natural protein)
chain: MATANNPPSGLLDPTLCEDRIFYNILEIEPRFLTSDSVFGTFQQSLTSHMRKLLGTWMFSVCQEYNLEPNVVALALNLLDRLLLIKQVSKEHFQKTGSACLLVASKLRSLTPISTSSLCYAAADSFSRQELIDQEKELLEKLAWRTEAVLATDVTSFLLLKLLGGSQHLDFWHHEVNTLITKALVDPKTGSLPASIISAAGCALLVPANVIPQDTHSGGVVPQLASILGCDVSVLQAAVEQILTSVSDFDLRILDSY
modifications: biotin (on the Avi tag)
notes: also called viral D-type cyclin from Kaposi's sarcoma-associated herpesvirus; source: purified
Binder B8 has a Kd (GSTCDK4 [2]) of 24.9 nM and a Kd (GSTCDK6 [3]) of 10 nM.
